{"source": "patent US20170183403A1", "about": "(UNIVERSIT T Z RICH, published 2017)", "binders": {"B1": {"name": "NARA1 (antibody, mouse IgG2a, kappa, V domains shown)", "VH": "QVQLQQSGAELVRPGTSVKVSCKASGYAFTNYLIEWVKQRPGQGLEWIGVINPGSGGTNYNEKFKGKATLTADKSSSTAYMQLSSLTSDDSAVYFCARWRGDGYYAYFDVWGAGTTVTVSS", "VL": "not shown", "notes": "Mouse monoclonal from hybridoma; Isotype controls used were mouse IgG2a; also called anti-IL2 (NARA1) antibody; monoclonal antibody NARA1"}}, "key": {"[1]": {"biological_target": "T1, murine IL-2 (mouse, UniProt P04351 21-169)", "T1 construct": "also called mouse IL-2; mIL-2", "T1 sequence (looked up)": "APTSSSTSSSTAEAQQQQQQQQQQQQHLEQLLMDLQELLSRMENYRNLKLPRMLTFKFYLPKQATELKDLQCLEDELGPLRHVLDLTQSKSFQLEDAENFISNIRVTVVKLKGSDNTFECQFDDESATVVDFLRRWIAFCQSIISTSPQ", "assay": "SPR, NARA1 amine-coupled to a GLM chip, mouse IL-2 as analyte at 10, 3.3, 1.1, 0.37, 0.123 and 0.041 nM"}, "[2]": {"biological_target": "T2, Reference peptide no. 60", "T2 construct": "second library: peptide 24 with its first Leu replaced by Ala as printed (by count this is L90, not L92); also called peptide 60", "T2 peptide": "ANLAQSKNFHLRPRD", "assay": "peptide microarray (RepliTope), 15-mers", "protocol": "(§1) Additional incubations are with unrelated antibodies from the same isotype (mouse control IgG2a/lambda and mouse control IgG2a/kappa), and secondary antibodies (anti-mouse IgG (Thermo 84545, label DL650) or anti-mouse IgG (JIR 115-175-072, Label Cy5)) to assess unspecific binding due to the detection antibody. The experiments are performed essentially as described in Maksimov P, et al. 2012, PLoS One 7:e34212. doi:10.1371/journal. pone. 0034212.\n(§2) The determination of peptide-antibody binding was performed by RepliTope-analysis where the peptide microarray (triplicate) was incubated with the primary antibody followed by a fluorescently labelled secondary antibody directed against the Fc-part of the primary one. All steps were performed on a TECAN microarray processing station enabling highly reliable and reproducible washing and incubation steps. After performing the incubation steps and subsequent to the final washing steps (to remove the unbound secondary antibodies) the microarrays were dried using a nitrogen stream and scanned in a high resolution microarray scanning system with appropriate wavelength settings. Control incubations were performed with an unrelated antibody having the same isotype to exclude false positive signals.\n(§3) The resulting images were analyzed und quantified using spot-recognition software GenePix (Molecular Devices). For each spot, the mean signal intensity was extracted (between 0 and 65535 arbitrary units). For further data evaluation, the MMC2 values were determined. The MMC2 equals the mean value of all three instances on the microarray. Except the coefficient of variation (CV)—standard-deviation divided by the mean value—is larger 0.5, in this case the mean of the two closest values (MC2) is assigned to MMC2."}, "[3]": {"biological_target": "T3, Reference peptide no. 43", "T3 construct": "second library: peptide 11 with F(62) to Ala; also called peptide 43", "T3 peptide": "YKNPKLTRMLTAKFY", "assay": "peptide microarray (RepliTope), 15-mers", "protocol": "as §1, §2, §3"}, "[4]": {"biological_target": "T4, Reference peptide no. 24", "T4 construct": "hIL-2 15-mer, first library, on microarray; also called peptide 24", "T4 peptide": "LNLAQSKNFHLRPRD", "assay": "peptide microarray (RepliTope), 15-mers", "protocol": "as §1, §2, §3"}, "[5]": {"biological_target": "T5, Reference peptide no. 9", "T5 construct": "hIL-2 15-mer, first library, on microarray; also called peptide 9", "T5 peptide": "LNGINNYKNPKLTRM", "assay": "peptide microarray (RepliTope), 15-mers", "protocol": "as §1, §2, §3"}, "[6]": {"biological_target": "T6, Reference peptide no. 22", "T6 construct": "hIL-2 15-mer, first library, on microarray; also called peptide 22", "T6 peptide": "KPLEEVLNLAQSKNF", "assay": "peptide microarray (RepliTope), 15-mers", "protocol": "as §1, §2, §3"}, "[7]": {"biological_target": "T7, Reference peptide no. 38", "T7 construct": "hIL-2 15-mer, first library, parental Cys replaced by Ser, on microarray; also called peptide 38", "T7 peptide": "ATIVEFLNRWITFSQ", "assay": "peptide microarray (RepliTope), 15-mers", "protocol": "as §1, §2, §3"}, "[8]": {"biological_target": "T8, Reference peptide no. 29", "T8 construct": "hIL-2 15-mer, first library, on microarray; also called peptide 29", "T8 peptide": "LISNINVIVLELKGS", "assay": "peptide microarray (RepliTope), 15-mers", "protocol": "as §1, §2, §3"}, "[9]": {"biological_target": "T9, Reference peptide no. 7", "T9 construct": "hIL-2 15-mer, first library, on microarray; also called peptide 7", "T9 peptide": "LDLQMILNGINNYKN", "assay": "peptide microarray (RepliTope), 15-mers", "protocol": "as §1, §2, §3"}, "[10]": {"biological_target": "T10, Reference peptide no. 46", "T10 construct": "second library: peptide 14 with F(62) to Ala; also called peptide 46", "T10 peptide": "LTAKFYMPKKATELK", "assay": "peptide microarray (RepliTope), 15-mers", "protocol": "as §1, §2, §3"}, "[11]": {"biological_target": "T11, Reference peptide no. 33", "T11 construct": "hIL-2 15-mer, first library, parental Cys replaced by Ser, on microarray; also called peptide 33", "T11 peptide": "KGSETTFMSEYADET", "assay": "peptide microarray (RepliTope), 15-mers", "protocol": "as §1, §2, §3"}, "[12]": {"biological_target": "T12, Reference peptide no. 11", "T12 construct": "hIL-2 15-mer, first library, on microarray; also called peptide 11", "T12 peptide": "YKNPKLTRMLTFKFY", "assay": "peptide microarray (RepliTope), Ala mutagenesis set"}, "[13]": {"biological_target": "T13, Reference peptide no. 49", "T13 construct": "second library: peptide 13 with Y(65) to Ala; also called peptide 49", "T13 peptide": "TRMLTFKFAMPKKAT", "assay": "peptide microarray (RepliTope), Ala mutagenesis set"}, "[14]": {"biological_target": "T14, Reference peptide no. 10", "T14 construct": "hIL-2 15-mer, first library, on microarray; also called peptide 10", "T14 peptide": "INNYKNPKLTRMLTF", "assay": "peptide microarray (RepliTope), Ala mutagenesis set"}, "[15]": {"biological_target": "T15, Reference peptide no. 42", "T15 construct": "second library: peptide 10 with F(62) to Ala; also called peptide 42", "T15 peptide": "INNYKNPKLTRMLTA", "assay": "peptide microarray (RepliTope), Ala mutagenesis set"}, "[16]": {"biological_target": "T16, Reference peptide no. 45", "T16 construct": "second library: peptide 13 with F(62) to Ala; also called peptide 45", "T16 peptide": "TRMLTAKFYMPKKAT", "assay": "peptide microarray (RepliTope), Ala mutagenesis set"}, "[17]": {"biological_target": "T17, Reference peptide no. 44", "T17 construct": "second library: peptide 12 with F(62) to Ala; also called peptide 44", "T17 peptide": "PKLTRMLTAKFYMPK", "assay": "peptide microarray (RepliTope), Ala mutagenesis set"}, "[18]": {"biological_target": "T18, Reference peptide no. 12", "T18 construct": "hIL-2 15-mer, first library, on microarray; also called peptide 12", "T18 peptide": "PKLTRMLTFKFYMPK", "assay": "peptide microarray (RepliTope), Ala mutagenesis set"}, "[19]": {"biological_target": "T19, Reference peptide no. 52", "T19 construct": "second library: peptide 11 with F(62) and Y(65) to Ala; also called peptide 52", "T19 peptide": "YKNPKLTRMLTAKFA", "assay": "peptide microarray (RepliTope), Ala mutagenesis set"}, "[20]": {"biological_target": "T3, Reference peptide no. 43", "assay": "peptide microarray (RepliTope), Ala mutagenesis set"}, "[21]": {"biological_target": "T20, Reference peptide no. 47", "T20 construct": "second library: peptide 11 with Y(65) to Ala; also called peptide 47", "T20 peptide": "YKNPKLTRMLTFKFA", "assay": "peptide microarray (RepliTope), Ala mutagenesis set"}, "[22]": {"biological_target": "T21, Reference peptide no. 13", "T21 construct": "hIL-2 15-mer, first library, on microarray; also called peptide 13", "T21 peptide": "TRMLTFKFYMPKKAT", "assay": "peptide microarray (RepliTope), Ala mutagenesis set"}}, "data": [{"binder": "B1", "values": [{"measurement": "binding result", "setting": "[1]", "result": "no binding (tested: 10 nM)"}, {"measurement": "binding result", "setting": "[2]", "result": "no binding"}, {"measurement": "binding result", "setting": "[3]", "result": "no binding"}, {"measurement": "binding result", "setting": "[4]", "result": "no binding"}, {"measurement": "binding result", "setting": "[5]", "result": "no binding"}, {"measurement": "binding result", "setting": "[6]", "result": "no binding"}, {"measurement": "binding result", "setting": "[7]", "result": "no binding"}, {"measurement": "binding result", "setting": "[8]", "result": "no binding"}, {"measurement": "binding result", "setting": "[9]", "result": "no binding"}, {"measurement": "binding result", "setting": "[10]", "result": "no binding"}, {"measurement": "binding result", "setting": "[11]", "result": "no binding"}, {"measurement": "signal intensity after subtraction of control signal", "setting": "[12]", "result": 1190, "unit": "AU"}, {"measurement": "signal intensity after subtraction of control signal", "setting": "[13]", "result": 1490, "unit": "AU"}, {"measurement": "signal intensity after subtraction of control signal", "setting": "[14]", "result": 20900, "unit": "AU"}, {"measurement": "signal intensity after subtraction of control signal", "setting": "[15]", "result": 162, "unit": "AU"}, {"measurement": "signal intensity after subtraction of control signal", "setting": "[16]", "result": 0, "unit": "AU"}, {"measurement": "signal intensity after subtraction of control signal", "setting": "[17]", "result": 432, "unit": "AU"}, {"measurement": "signal intensity after subtraction of control signal", "setting": "[18]", "result": 1130, "unit": "AU"}, {"measurement": "signal intensity after subtraction of control signal", "setting": "[19]", "result": 238, "unit": "AU"}, {"measurement": "signal intensity after subtraction of control signal", "setting": "[20]", "result": 507, "unit": "AU"}, {"measurement": "signal intensity after subtraction of control signal", "setting": "[21]", "result": 251, "unit": "AU"}, {"measurement": "signal intensity after subtraction of control signal", "setting": "[22]", "result": 224, "unit": "AU"}]}]}
